One data set concerns the target T1, SpHex (Streptomyces plicatus, UniProt O85361).
T1 construct: gene hex
T1 sequence (O85361 1-506): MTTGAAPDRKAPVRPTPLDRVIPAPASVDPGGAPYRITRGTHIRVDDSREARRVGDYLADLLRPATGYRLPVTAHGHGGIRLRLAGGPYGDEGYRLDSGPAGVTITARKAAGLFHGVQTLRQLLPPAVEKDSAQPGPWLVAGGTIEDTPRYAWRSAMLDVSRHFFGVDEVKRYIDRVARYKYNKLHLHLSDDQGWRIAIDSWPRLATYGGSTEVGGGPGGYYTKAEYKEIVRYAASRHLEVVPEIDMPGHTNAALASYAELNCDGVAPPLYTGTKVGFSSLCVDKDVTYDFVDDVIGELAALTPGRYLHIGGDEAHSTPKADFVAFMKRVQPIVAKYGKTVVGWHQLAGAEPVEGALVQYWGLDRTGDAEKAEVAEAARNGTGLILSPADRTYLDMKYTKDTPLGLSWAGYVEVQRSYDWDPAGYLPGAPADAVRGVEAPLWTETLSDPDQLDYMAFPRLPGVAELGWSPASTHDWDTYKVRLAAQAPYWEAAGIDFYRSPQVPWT
As to the kind of experiment: transglycosylation time course, TLC. Type of data set: biochemical. The conditions noted are these: donor 100 mM; acceptor 200 mM lactose; 50 mM sodium phosphate pH 8.0, 0.5% BSA, 37 °C.

Substrate in data set [1]: CC(=O)N[C@H]1[C@H](Oc2ccc([N+](=O)[O-])cc2)O[C@H](CO)[C@@H](O)[C@@H]1O
The data set is described as follows: purified protein. The settings on record: two-fold diluted McIlvaine buffer pH 6.0, 0.05% BSA, 37 °C. In kind it is biochemical, Paraglaciecola hydrolytica.

Substrate in data set [2]: CC(=O)N[C@H]1[C@H](Oc2ccc([N+](=O)[O-])cc2)O[C@H](CO)[C@H](O)[C@@H]1O
The data set is described as follows: purified protein. In kind it is biochemical, Paraglaciecola hydrolytica. The conditions noted are these: two-fold diluted McIlvaine buffer pH 6.0, 0.05% BSA, 37 °C.

As a reminder, the Km is the concentration of substrate that gives half-maximal velocity. In general, kcat refers to the maximal rate divided by the concentration of active sites. For orientation: kcat/Km means the turnover number divided by the Michaelis constant.

Consider `CC1=N[C@H]2[C@@H](O1)O[C@H](CO)[C@@H](O)[C@@H]2O` [NAG-oxazoline, 2-methyl-(1,2-dideoxy-α-D-glucopyrano)-oxazoline], for which the “transglycosylation time course, TLC” value on SpHex is “We here also demonstrated transglycosylation by the commercial GH20 N-acetylglucosaminidase from S. plicatus (SpHex)”.

B1: PhNah20A (Paraglaciecola hydrolytica) (protein)
chain: MYKIIIAGLGLLWSITSHGMQPLNLMPYPSEVQQQAGHFTLPSQLKVFTQHVSEARCELIKEQLEQLQQVEVLWVTAKDQANLLVEVEGVTQVMEVGGKSGELIPTLHDNEQYHLSVSPRLITLKAQTERGMLHGVQTLLQLVNRTQRSIPAVDIDDKPRFAWRGLLIDSVRHFMPVDTIKRQLRGMASAKLNVLHWHLTDDQGWRIASKAYPKLQLLASDGLFYTQQQIREVVQYAALLGIRVVPEFDVPGHASAIAVAYPELITQPGPYTMQRHWGVFEPLLDPSNPQVYQFIETIISELAELFPDVYVHIGGDEIEPTQWQQSQAVQHYMQQHQLADEHQLHAYFNQQVQQILSKYGKQMMGWDEVFATDLPKDIVVQSWRGLDSLQHIASSDYQVLLSTGYYVDQPQEAAYHYRNDPFTSFKQPSFKTQDIKHWQHWQFTMPRLKGSAVSGEFVLLSSEAGKQVLLRFNNQQARLINELEPRANLQRFTVDSWMGPSQFELDLSKDVIQQGRILIGNTPYSVSGNRLAQSTGSKALPAMLQDFVAASKVPTDLPKLHKNILGGEAAIWSEIVRADNLDLRLWPRLYAIAERLWSPATLTDEDAMYRRLTVMQTYASEVIGLEFTQQQRAGFKQLTSQDADIEPLIILAEAVEQAQYYTRHHSKFQHDNYHQLVELNQYVDYLSAQSLGLVELKRHIELFQQGDQQAKKFIEQLLQKWQKNLPKLKLLIANYPKLHSLAPLVTTLSQVVDIGQKLVAQCAKGEPLKPEHQRDVQQQLWQAAQLQQEMVVSSALAIEALAFKCRA
Consider B1, for which, in “purified protein [1]”, the Km came out at 430 ± 70 µM, the kcat is 147 s⁻¹ and the kcat/Km worked out at 341000 M⁻¹ s⁻¹. Moreover, in the data set “purified protein [2]”, the Km is 560 ± 110 µM, the kcat came out at 193 s⁻¹ and the kcat/Km was 344000 M⁻¹ s⁻¹.

The values above are taken from PMC7014002, “Identification and Characterization of a β-N-Acetylhexosaminidase with a Biosynthetic Activity from the Marine Bacterium Paraglaciecola hydrolytica S66^T” (International Journal of Molecular Sciences, 2020).
